The values below come from patent US20110091971A1, “Differentiation of Pluripotent Stem Cells” (priority 2008, published 2011).

B1: ACTN41: activin A variant peptide, SEQ ID 42 (protein)
chain: GLECDGKVNLCCKKQDFVSFKDIGWNDWIIAPSGYHANSCSGLCPSHIAGTSGSSLSFHSTVINHYRMRGHSPFSDRGACCIPTKLRPMSMLYYDDGQNIIKKDIQNMIVEECGCS
B2: ACTN47: activin A variant peptide, SEQ ID 48 (protein)
chain: B1 chain with L10Y, D16N, S39E, L43K, R77M, A79S
B3: ACTN45: activin A variant peptide, SEQ ID 46 (protein)
chain: B1 chain with L10T, D16N, S39E, L43K, S75A, D76N, R77M
B4: ACTN43: activin A variant peptide, SEQ ID 44 (protein)
chain: B1 chain with L10Y, S39R, S41D, L43K, R77M, I82V
B5: ACTN44: activin A variant peptide, SEQ ID 45 (protein)
chain: B1 chain with D16N, S39E, L43K, R77M
B6: ACTN52: activin A variant peptide, SEQ ID 53 (protein)
chain: GLECDGKVNICCKKQLFGKTKDIGWNDWIIAPSGYHGGSCTGECPSHIAGTSGSSLSFHSTVINHYRMRGHSPNANLKSCCSPTKLRPMSMLYYDDGQNIIKKDIQGMKVEECGCT
B7: ACTN53: activin A variant peptide, SEQ ID 54 (protein)
chain: B6 chain with L16E, K19Q, T20A, S39G, T41S, N74W
B8: ACTN57: activin A variant peptide, SEQ ID 58 (protein)
chain: B6 chain with L16S, K19Q, T20A, S39G, T41S, N74W, G107N
B9: ACTN59: activin A variant peptide, SEQ ID 60 (protein)
chain: B6 chain with K19Q, S39G, S82A, T116V
B10: ACTN55: activin A variant peptide, SEQ ID 56 (protein)
chain: B6 chain with L16S, K19Q, S39G, N74W, K109V

Where a chain is given by its changes, count along the chain named. “And” between values parts separate entries of the source, which are not always exact repeats. Equal entries are not always repeated.

One assay relates to H1 or H9 human embryonic stem cells. The experiment in a line: Activin A bioassay: differentiation of human embryonic stem cells to definitive endoderm, cell number and SOX17 intensity by high content analysis (96-well, four days).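 As to Sox 17 Intensity average: total fluorescence of the cell multiplied by cell area.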 Particulars: supernatant concentration 1x, assay dilution 1:20. Format: cell-based. The source says:
Activin A is an important mediator of differentiation in a broad range of cell types. […] A bioassay that measures this differentiation in human embryonic stem cells was adapted in miniaturized format to 96-well plates for screening purposes. Validation was completed using treatment with commercial sources of activin A and Wnt3a recombinant proteins and measuring protein expression of the transcription factor SOX17, which is considered a representative marker of definitive endoderm.
Live Cell Assay: Briefly, clusters of H1 or H9 human embryonic stem cells were grown on growth factor-reduced MATRIGEL™ (Invitrogen; Cat #356231)-coated tissue culture plastic. Cells were passaged using collagenase (Invitrogen; Cat # Cat #17104-019) treatment and gentle scraping, washed to remove residual enzyme, and plated in a ratio of 1:1 (surface area) on growth factor-reduced MATRIGEL™-coated 96-well plates (black, 96-well; Packard ViewPlates; Cat #6005182). Cells were allowed to attach as clusters and then recover log phase growth over a 1 to 3 day period, feeding daily with MEF conditioned medium supplemented with 8 ng/ml bFGF (R&D Systems; Cat #233-FB).
The assay was initiated by washing the wells of each plate twice in PBS and followed by adding an aliquot (100 μl) of test sample in DMEM:F12 basal medium (Invitrogen; Cat #11330-032) to each well. Test conditions were performed in triplicate, feeding […] by aspirating and replacing the medium from each well with test samples over a total four day assay period. On the first and second day of assay, test samples added to the assay wells were diluted in DMEM:F12 with 0.5% FCS (HyClone; Cat #SH30070.03) and 20 ng/ml Wnt3a (R&D Systems; Cat #1324-WN). On the third and fourth day of assay, test samples added to the assay wells were diluted in DMEM:F12 with 2% FCS, without any Wnt3a. Positive control samples consisted of recombinant human activin A (Peprotech; Cat #120-14) added at a concentration of 100 ng/ml throughout assay plus Wnt3a (20 ng/ml) on days 1 and 2. Negative control samples omitted treatment with both activin A and Wnt3a.
High Content Analysis: At the conclusion of four days of culture, assay plates were washed twice with PBS, fixed with 4% paraformaldehyde at room temperature for 20 minutes, then washed three times with PBS and permeabilized with 0.5% Triton X-100 for 20 minutes at room temperature. Cells were washed again three times with PBS and blocked with 4% chicken serum (Invitrogen; Cat #16110082) in PBS for 30 minutes at room temperature. Primary antibody (goat anti-human SOX17; R&D Systems; cat #AF1924) was diluted 1:100 in 4% chicken serum and added to each well for one hour at room temperature. Alexa Fluor 488 conjugated secondary antibody (chicken anti-goat IgG; Molecular Probes; Cat #) was diluted 1:200 in PBS and added to each sample well after washing three times with PBS. To counterstain nuclei, 4 μg/ml Hoechst 33342 (Invitrogen; Cat #H3570) was added for ten minutes at room temperature. Plates were washed once with PBS and left in 100 μl/well PBS for imaging.
Imaging was performed using an IN Cell Analyzer 1000 (GE Healthcare) utilizing the 51008bs dichroic for cells stained with Hoechst 33342 and Alexa Fluor 488. Exposure times were optimized from positive control wells and from untreated negative control wells stained with secondary antibody alone. Images from 15 fields per well were acquired to compensate for any cell loss during the bioassay and subsequent staining procedures. Measurements for total cell number and total SOX17 intensity were obtained from each well using IN Cell Developer Toolbox 1.7 (GE Healthcare) software. Segmentation for the nuclei was determined based on grayscale levels (baseline range 100-300) and nuclear size. Averages and standard deviations were calculated for each replicate data set. […]
As for B1, the “Cell Number average” value was 6073 and the “Sox 17 Intensity average” value is 1.42E+05.

Regarding B2, the “Cell Number average” value is listed as 2624 and the “Sox 17 Intensity average” value is reported as 7.48E+05.

On to B3, for which the “Cell Number average” value worked out at 4591 and the “Sox 17 Intensity average” value is given as 1.48E+05.

As for B4, the “Cell Number average” value is 657 and the “Sox 17 Intensity average” value was 1.85E+04.

Regarding B5, the “Cell Number average” value is reported as 3657 and the “Sox 17 Intensity average” value stood at 5.01E+04.

On to B6, for which the “Cell Number average” value is recorded as 3092 and the “Sox 17 Intensity average” value is given as 1.17E+05.

For the molecule B7, the “Cell Number average” value amounted to 1610 and the “Sox 17 Intensity average” value amounted to 1.14E+06.

Consider B8, for which the “Cell Number average” value is 4485 and the “Sox 17 Intensity average” value is 9.99E+05.

Take B9: the “Cell Number average” value came out at 2613 and the “Sox 17 Intensity average” value is on record as 1.09E+06.

Consider B10, for which the “Cell Number average” value was determined as 2425 and the “Sox 17 Intensity average” value is 3.41E+05.

The assay is the same for the next values; noted with them: supernatant concentration 1x, assay dilution 1:20; control = R&D Sys Activin A 100 ng/ml on same plate.
As for B1, the “Sox 17 Intensity % of control” value amounted to 1.5%.

For B2, the “Sox 17 Intensity % of control” value came out at 8.0%.

Consider B3, for which the “Sox 17 Intensity % of control” value amounted to 1.6%.

With B4, the “Sox 17 Intensity % of control” value was 0.2%.

For the molecule B5, the “Sox 17 Intensity % of control” value stood at 0.5%.

In the case of B6, the “Sox 17 Intensity % of control” value was 1.3%.

With B7, the “Sox 17 Intensity % of control” value is recorded as 3.8%.

As to B8, the “Sox 17 Intensity % of control” value was 3.4%.

With B9, the “Sox 17 Intensity % of control” value was 3.7%.

B10: the “Sox 17 Intensity % of control” value turned out to be 1.2%.

The assay is the same for the next values; noted with them: supernatant concentration 10x, assay dilution 1:20.
Turning to B1, the “Cell Number average” value is given as 1397 and the “Sox 17 Intensity average” value is 1.46E+05.

Take B2: the “Cell Number average” value stood at 1399 and the “Sox 17 Intensity average” value was 4.27E+06.

As to B3, the “Cell Number average” value was determined as 2058 and the “Sox 17 Intensity average” value is 1.13E+05.

Regarding B4, the “Cell Number average” value came to 877 and the “Sox 17 Intensity average” value was 2.13E+05.

Consider B5, for which the “Cell Number average” value was 1508 and the “Sox 17 Intensity average” value came to 3.24E+05.

With B6, the “Cell Number average” value was 4869 and the “Sox 17 Intensity average” value turned out to be 2.64E+04.

In the case of B7, the “Cell Number average” value came to 3229 and the “Sox 17 Intensity average” value is 1.51E+06.

For the molecule B8, the “Cell Number average” value is given as 6471 and the “Sox 17 Intensity average” value is recorded as 1.74E+06.

Turning to B9, the “Cell Number average” value was 3304 and the “Sox 17 Intensity average” value was 2.11E+06.

For B10, the “Cell Number average” value was 3611 and the “Sox 17 Intensity average” value was determined as 2.67E+05.

The assay is the same for the next values; noted with them: supernatant concentration 10x, assay dilution 1:20; assay plates #007, #009, #010.
B8: the “Cell Number average” value was 9442 and the “Sox 17 Intensity average” value was found to be 1.70E+06.

Staying with this assay, now noted: supernatant concentration 10x, assay dilution 1:20; control = R&D Sys Activin A 100 ng/ml on same plate.
For the molecule B1, the “Sox 17 Intensity % of control” value is reported as 1.6%.

On to B2, for which the “Sox 17 Intensity % of control” value stood at 45.7%.

As to B3, the “Sox 17 Intensity % of control” value stood at 1.2%.

On to B4, for which the “Sox 17 Intensity % of control” value is recorded as 2.3%.

For the molecule B5, the “Sox 17 Intensity % of control” value is reported as 3.5%.

Take B6: the “Sox 17 Intensity % of control” value was determined as 0.3%.

B7: the “Sox 17 Intensity % of control” value is 5.1%.

Regarding B8, the “Sox 17 Intensity % of control” value is 5.9% and 6.8%.

Regarding B9, the “Sox 17 Intensity % of control” value stood at 7.1%.

With B10, the “Sox 17 Intensity % of control” value amounted to 0.9%.

Staying with this assay, now noted: supernatant concentration 10x, assay dilution 1:40.
For B1, the “Cell Number average” value is recorded as 2643 and the “Sox 17 Intensity average” value came out at 6.30E+04.

Regarding B2, the “Cell Number average” value is 1610 and the “Sox 17 Intensity average” value is on record as 1.09E+06.

Consider B3, for which the “Cell Number average” value worked out at 4482 and the “Sox 17 Intensity average” value is on record as 2.30E+04.

As to B4, the “Cell Number average” value is 1251 and the “Sox 17 Intensity average” value is 5.57E+04.

B5: the “Cell Number average” value stood at 2272 and the “Sox 17 Intensity average” value is given as 1.58E+05.

Take B6: the “Cell Number average” value was 3900 and the “Sox 17 Intensity average” value came to 9.50E+04.

For B7, the “Cell Number average” value came out at 3476 and the “Sox 17 Intensity average” value is listed as 9.41E+05.

Take B8: the “Cell Number average” value turned out to be 4594 and the “Sox 17 Intensity average” value was found to be 1.30E+06.

B9: the “Cell Number average” value was 1776 and the “Sox 17 Intensity average” value stood at 1.81E+06.

On to B10, for which the “Cell Number average” value is on record as 2761 and the “Sox 17 Intensity average” value came out at 5.44E+05.

The same assay, now with this note: supernatant concentration 10x, assay dilution 1:40; control = R&D Sys Activin A 100 ng/ml on same plate.
Turning to B1, the “Sox 17 Intensity % of control” value is listed as 0.7%.

In the case of B2, the “Sox 17 Intensity % of control” value is listed as 11.7%.

Consider B3, for which the “Sox 17 Intensity % of control” value is 0.2%.

In the case of B4, the “Sox 17 Intensity % of control” value is recorded as 0.6%.

As to B5, the “Sox 17 Intensity % of control” value was 1.7%.

As for B6, the “Sox 17 Intensity % of control” value is 1.0%.

For B7, the “Sox 17 Intensity % of control” value is recorded as 3.2%.

For the molecule B8, the “Sox 17 Intensity % of control” value was found to be 4.4%.

For the molecule B9, the “Sox 17 Intensity % of control” value was found to be 6.1%.

As for B10, the “Sox 17 Intensity % of control” value stood at 1.8%.

Staying with this assay, now noted: supernatant concentration 50x, assay dilution 1:20; assay plates #008, #009.
In the case of B8, the “Cell Number average” value amounted to 12697 and the “Sox 17 Intensity average” value is recorded as 7.82E+06.

Staying with this assay, now noted: supernatant concentration 50x, assay dilution 1:20; control = R&D Sys Activin A 100 ng/ml on same plate.
As to B8, the “Sox 17 Intensity % of control” value is reported as 31.4%.
